For test [1], the target named is T1, 人全长PD-1蛋白 (过表达于HEK293T细胞) (human, UniProt Q15116 25-288).
T1 construct: whole, on cells; also called 过表达PD-1的HEK293T细胞
The test is described as follows: flow cytometry on HEK293T cells overexpressing human full-length PD-1, anti-human IgG1-FITC detection.

In test [2] the target is T2, PD-1(ECD)-hFc融合蛋白 (human, UniProt Q15116 25-170).
T2 construct: extracellular domain; It was biotin-labelled for the panning and coated on the plate in the ELISA; also called PD-1(ECD)-hFc蛋白; PD-1蛋白; not shown: hFc (human Fc)
The test is described as follows: ELISA, PD-1(ECD)-hFc coated, serially diluted antibody, HRP-anti-Fab detection; reference: P2-G12 Fab.

Test [3] deals with T2, PD-1(ECD)-hFc融合蛋白. Put plainly: ELISA, PD-1(ECD)-hFc coated, serially diluted antibody, HRP-anti-Fab detection.

T1 sequence (Q15116 25-288): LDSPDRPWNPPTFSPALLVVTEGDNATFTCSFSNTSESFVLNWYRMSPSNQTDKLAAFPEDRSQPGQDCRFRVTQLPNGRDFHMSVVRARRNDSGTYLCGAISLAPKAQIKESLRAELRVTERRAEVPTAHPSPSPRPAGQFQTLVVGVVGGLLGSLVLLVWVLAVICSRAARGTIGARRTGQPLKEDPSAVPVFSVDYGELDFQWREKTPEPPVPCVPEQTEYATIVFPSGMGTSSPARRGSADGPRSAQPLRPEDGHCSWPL
T2 sequence (Q15116 25-170): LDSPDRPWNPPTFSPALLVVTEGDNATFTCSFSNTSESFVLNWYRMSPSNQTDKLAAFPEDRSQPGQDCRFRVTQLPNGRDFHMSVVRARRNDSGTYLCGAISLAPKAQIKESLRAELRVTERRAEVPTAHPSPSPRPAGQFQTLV

B1: P2-G12 IgG1 (antibody, V domains shown)
VH: EVQLVQSGGGLVQPGGSLRLSCAASGFTFSSYSMNWVRQAPGKGLEWVSAISGSGGSTYYADSVKGRFTISRDNSKNTLYLQMNSLRAEDTAVYYCARDPYGSGSYYRGDAFDIWGQGTMVTVSS
VL: ELTQPPSVSVAPGKTARITCGGNNIGSKSVHWYQQKPGQAPVLAIYYDSDRPSGIPERFSGSNSGNTATLTISRVEVGDEADYYCQVWDSVSDVVFGGGTKLTVL
notes: also called 单克隆抗体P2-G12
B1: the binding result in test [1] is given as “binds”. This molecule returned a fold increase of binding ability against the Fab form in test [2] of 100 fold.

B2: P2-G12 Fab (Fab, V domains shown)
VH: EVQLVQSGGGLVQPGGSLRLSCAASGFTFSSYSMNWVRQAPGKGLEWVSAISGSGGSTYYADSVKGRFTISRDNSKNTLYLQMNSLRAEDTAVYYCARDPYGSGSYYRGDAFDIWGQGTMVTVSS
VL: ELTQPPSVSVAPGKTARITCGGNNIGSKSVHWYQQKPGQAPVLAIYYDSDRPSGIPERFSGSNSGNTATLTISRVEVGDEADYYCQVWDSVSDVVFGGGTKLTVL
notes: Fully human Fab from a phage display library, expressed in E. coli HB2151 and purified on Ni-NTA; P2-G12 is the only antibody described; also called PD-1抗体 (Fab形式)
With B2, the binding result in test [3] is “binds”.

(Values after patent CN111378038A (UNIV FUDAN, dated 2020).)
